{"source": "patent US7335638B2", "about": "“Prevention and treatment of mycoplasma-associated diseases” (priority 2000, dated 2008)", "tested_on": "adenocarcinoma of Walker", "assay": "Treatment of experimental adenocarcinoma in rats (Walker tumor)", "type": "in vivo, rat", "conditions": "both died after 12 days of treatment; prolactine added to TS, PDTC and plant extract", "text": "Malignant neoplasia was induced experimentally by inoculation of 500,000 cells of adenocarcinoma of Walker in the right flank of several rats in order to verify if the use of simultaneous anti-proliferative and anti-oxidative drugs may decrease the growing of the neoplasia and the level of metastases. Usually the animals receiving such inoculation of adecarcinoma cells survived for 10-12 days and presented metastasis to many ganglia, liver and lung. Nine of these animals were inoculated after 7 days of tumor cells with 0.5 ml of trans-sialidase TS (supernatant of culture of T. cruzi) as described in the U.S. patent application Ser. No. 10/086,913, filed Mar. 1, 2002 and with 0.75 mg of PDTC, into the peritoneum every day. The particles containing DNA or RNA prepared from plant extracts (garlic, Ginkgo biloba and tomato) as described above was also administered. All animals received 0.5 ml of garlic extract by subcutaneous route (Table 1 below). The tumors were similar in size for all animals at the beginning of the treatment, i.e. 2.8×2.7 cm.\nRats 1-4 were followed until death. Rats 3 and 4 received 0.5 ml of Ginkgo biloba's extract, every day. The tumors increased slower in all 4 animals receiving plant extracts than the controls. […]\nProlactin and/or growth hormone administration to diminish these effects was also evaluated. […]"}
{"molecule": "prolactine: ovine prolactine from Sigma, neuroendocrine hormone (protein, UniProt P01240 31-229, looked up) Prolactin: TPVCPNGPGNCQVSLRDLFDRAVMVSHYIHNLSSEMFNEFDKRYAQGKGFITMALNSCHTSSLPTPEDKEQAQQTHHEVLMSLILGLLRSWNDPLYHLVTEVRGMKGVPDAILSRAIEIEEENKRLLEGMEMIFGQVIPGAKETEPYPVWSGLPSLQTKDEDARHSAFYNLLHCLRRDSSKIDTYLKLLNCRIIYNNNC", "values": [{"measurement": "tumor at necropsy, Rat 4 compared with Rat 1", "value": "smaller size of the tumor with less microscopic necrosis"}]}
